Consider two molecules from publication PMC12574954 (2025).

In this assay the target is T1, thermolysin-generated VSV Gect (aa residues 1-422) (Vesicular stomatitis virus, UniProt P0C2X0 17-438).
T1 chain: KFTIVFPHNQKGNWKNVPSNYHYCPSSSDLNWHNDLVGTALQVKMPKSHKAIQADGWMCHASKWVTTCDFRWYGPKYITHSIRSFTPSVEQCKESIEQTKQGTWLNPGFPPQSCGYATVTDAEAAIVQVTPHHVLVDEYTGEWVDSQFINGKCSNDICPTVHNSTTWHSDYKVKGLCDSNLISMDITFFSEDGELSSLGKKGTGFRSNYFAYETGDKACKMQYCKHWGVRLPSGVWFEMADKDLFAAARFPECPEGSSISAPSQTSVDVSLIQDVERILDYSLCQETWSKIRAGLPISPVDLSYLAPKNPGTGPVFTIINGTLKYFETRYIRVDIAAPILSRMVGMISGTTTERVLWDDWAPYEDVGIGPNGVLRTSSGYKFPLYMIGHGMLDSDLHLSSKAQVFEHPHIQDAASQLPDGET
Description: BLI.

B1: recombinant Fab 8G5F11 (Fab, V domains shown)
VH: DVQLQESGPDLVKPSQSLSLTCTVTGYSITSGYSWHWNRQFPGNKLEWMGYIHYSGLTNYNPSLKSRISITRHTSKNQFFLQLNSVTTEDTATYYCVRGGYDGRDYYAMDFWGQGTSVTVSS
VL: DIVMTQSHKFMSTSVGDRVSITCKASQDVDNDVAWYQQKPGQSPKLLIYWASTRHTGVPDRFTGSGSGTDFTLTISDVQSEDLSDYFCQQYSSYPFTFGGGTRLEIK
The Kd is the equilibrium constant for the complex coming apart. A high value points to weaker binding. For B1, binding was characterised by a dissociation constant (Kd) of 0.72 nM.

B2: monoclonal antibody 8G5F11 (antibody, V domains shown)
VH: B1 VH
VL: B1 VL
In turn, B2 gave a dissociation constant Kd of 1.01 nM.
